The values below come from paper PMC4121141, “Structural Basis for TatA Oligomerization: An NMR Study of Escherichia coli TatA Dimeric Structure” (PLoS ONE, 2014).

A word on the stoichiometry N: it is the number of molecules, sites or subunits per partner or assembly.

Sequences and labels used below:
B1: Escherichia coli TatA, wild type, full length (natural protein, UniProt P69428 1-89, looked up)
chain: MGGISIWQLLIIAVIVVLLFGTKKLGSIGSDLGASIKGFKKAMSDDEPKQDKTSQDADFTAKTIADKQADTNQEQAKTEDAKRHDKEQV
notes: TatA, Escherichia coli, 89 amino acids, one transmembrane helix (Ile6-Phe20) and one amphipathic helix (Lys24-Met43); 15N- or 13C/15N-labelled for NMR; also called wt-TatA; wild-type TatA; source: in C12E9 with Superdex 200 gel filtration for blue-native PAGE
B2: TatA_(1–55), truncated E. coli TatA (residues Met1-Gln55) (domain or fragment, Escherichia coli, UniProt P69428 1-55, looked up)
chain: MGGISIWQLLIIAVIVVLLFGTKKLGSIGSDLGASIKGFKKAMSDDEPKQDKTSQ
notes: TatA, Escherichia coli, residues Met1-Gln55; the unstructured C-terminal region removed; 15N-labelled in the relaxation and PRE experiments; source: purified in DPC
B3: TatA_(1–55)-I11C-MTSL (domain or fragment, Escherichia coli, UniProt P69428 1-55, looked up)
chain: MGGISIWQLLC(MTSL)IAVIVVLLFGTKKLGSIGSDLGASIKGFKKAMSDDEPKQDKTSQ
notes: TatA, Escherichia coli, residues Met1-Gln55 with Ile11 mutated to cysteine; source: purified in DPC, unlabeled, tagged with MTSL
B4: TatA_(1–55)-I12C-MTSL (domain or fragment, Escherichia coli, UniProt P69428 1-55, looked up)
chain: MGGISIWQLLIC(MTSL)AVIVVLLFGTKKLGSIGSDLGASIKGFKKAMSDDEPKQDKTSQ
notes: TatA, Escherichia coli, residues Met1-Gln55 with Ile12 mutated to cysteine; source: purified in DPC, unlabeled, tagged with MTSL
B5: MCG-TatA (wild-type E. coli TatA extended at the N-terminus by Met-Cys-Gly) (natural protein, Escherichia coli)
chain: MCGMGGISIWQLLIIAVIVVLLFGTKKLGSIGSDLGASIKGFKKAMSDDEPKQDKTSQDADFTAKTIADKQADTNQEQAKTEDAKRHDKEQV
notes: three additional amino acids Met-Cys-Gly at the N-terminus, numbered M(-3)C(-2)G(-1); TatA, Escherichia coli, wild type, 89 amino acids, Met1 kept after the extension; The single chain of the disulphide-linked dimer d-MCG-TatA; It is used here for the subunit-to-subunit rows of the dimer structure and of the cross-link; source: in C12E9 with Superdex 200 gel filtration for blue-native PAGE; …

Where no end group is shown, it is not given here. The star is where a group is joined. MTSL = 1-oxy-2,2,5,5-tetramethyl-D-pyrroline-3-methyl methanethiosulfonate spin label, CC1(C)C=C(CS*)C(C)(C)N1[O]

Series [1] concerns the molecule itself. Kind of series: NMR 1H-15N HSQC at decreasing detergent-to-protein ratio; full-length TatA in DPC micelles, 50 mM sodium phosphate pH 7.0, 35°C; DPR lowered from >200; new sets of cross peaks appear.
Series [2] concerns the molecule itself. Kind of series: NMR backbone 15N relaxation (R2/R1); TatA_(1–55) in DPC micelles, DPR ~70, two sets of peaks in the HSQC, 800 MHz, 35°C; monomer to dimer.
In series [3] the target is B2. Kind of series: NMR intermolecular paramagnetic relaxation enhancement (PRE); unlabeled MTSL-tagged TatA_(1–55) cysteine mutant mixed at equal molar ratio with 15N-labeled TatA_(1–55) in DPC, 50 mM sodium phosphate pH 7.0, final DPR 40; reference spectrum after reduction with ascorbic acid. The conditions noted are these: both partners purified.
Series [4] concerns the molecule itself. Nature of the series: solution NMR structure (intermolecular NOEs); disulphide-linked d-MCG-TatA of mixed unlabeled and 13C/15N-labeled MCG-TatA (2:1) in dDPC micelles, DPR about 80, 35°C; 13C/15N-filtered NOESY; 139 inter-subunit NOE restraints; Xplor-NIH.

B1: the binding result in series [1] is “binds”.
As for B2, in series [2], the “stoichiometry N” value was 2.
With B3, the binding result in series [3] was “binds”.
Take B4: in series [3], the “stoichiometry N” value was found to be 2.
As for B5, in series [4], the binding result is “binds”.
